In article PMC2929395:

Substrate: CC(C)(CO)[C@@H](O)C(=O)NCCC(=O)O
Test: purified protein, by the assay type
Settings: pH 7.5, 37.0 °C

| Protein | Km (other: substrate) | Km (other: wild-type PanK3, substrate) |
| --- | --- | --- |
| PanK3(S195V) (Homo sapiens; S195V) (protein) MKIKDAKKPSFPWFGMDIGGTLVKLSYFEPIDITAEEEQEEVESLKSIRKYLTSNVAYGSTGIRDVHLELKDLTLFGRRGNLHFIRFPTQDLPTFIQMGRDKNFSTLQTVLCATGGGAYKFEKDFRTIGNLHLHKLDELDCLVKGLLYIDSVSFNGQAECYYFANASEPERCQKMPFNLDDPYPLLVVNIGSGVVILAVHSKDNYKRVTGTSLGGGTFLGLCSLLTGCESFEEALEMASKGDSTQADKLVRDIYGGDYERFGLPGWAVASSFGNMIYKEKRESVSKEDLARATLVTITNNIGSVARMCAVNEKINRVVFVGNFLRVNTLSMKLLAYALDYWSKGQLKALFLEHEGYFGAVGALLGLPNFS | 151 ± 16 µM |  |
| PanK3 (Homo sapiens) (protein) MKIKDAKKPSFPWFGMDIGGTLVKLSYFEPIDITAEEEQEEVESLKSIRKYLTSNVAYGSTGIRDVHLELKDLTLFGRRGNLHFIRFPTQDLPTFIQMGRDKNFSTLQTVLCATGGGAYKFEKDFRTIGNLHLHKLDELDCLVKGLLYIDSVSFNGQAECYYFANASEPERCQKMPFNLDDPYPLLVVNIGSGVSILAVHSKDNYKRVTGTSLGGGTFLGLCSLLTGCESFEEALEMASKGDSTQADKLVRDIYGGDYERFGLPGWAVASSFGNMIYKEKRESVSKEDLARATLVTITNNIGSVARMCAVNEKINRVVFVGNFLRVNTLSMKLLAYALDYWSKGQLKALFLEHEGYFGAVGALLGLPNFS |  | 14 ± 0.1 µM |
